Article PMC6694677
Each block holds one substance with its values, some of them ahead of it.

Experiments:
[1] = target: CD3 on Jurkat cells (human (endogenous in Jurkat)) (UniProt P07766); experiment: FACS; details: bispecific antibody
[2] = target: HER2 on SK-BR-3 cells (human (endogenous in SK-BR-3)) (UniProt P04626); experiment: FACS; details: bispecific antibody
[3] = target: recombinant HER2 antigen (ectodomain of hHER2) (Homo sapiens) (UniProt P04626); experiment: SPR; ProteOn XPR36, GLC chip; HER2 antigen immobilised by amine coupling at 1000 RU; antibodies (M802 0 to 50 nM) injected; 1:1 L interaction model; KD = Kd/Ka
[4] = target: recombinant CD3 antigen (ectodomain of hCD3) (human) (UniProt P07766); experiment: SPR; ProteOn XPR36, GLC chip; CD3 antigen immobilised by amine coupling at 1000 RU; antibodies (M802 0 to 50 nM) injected; Two state interaction model; KD = Kd/Ka
[5] = target: HER2 on SK-BR-3 cells (human (endogenous in SK-BR-3)) (UniProt P04626); experiment: flow cytometry on cells; SK-BR-3 or Jurkat cells with serially diluted antibody, 1 h at room temperature; PE-conjugated anti-human IgG Fc as secondary antibody
[6] = target: recombinant CD3 antigen (ectodomain of hCD3) (human) (UniProt P07766); experiment: SPR; ProteOn XPR36; HER2 and CD3 antigens amine-coupled on a GLC chip at 1000 RU; M802 (0 to 50 nM) and other antibodies injected; 1:1 L interaction model for HER2, two state interaction model for CD3
[7] = target: recombinant HER2 antigen (ectodomain of hHER2) (Homo sapiens) (UniProt P04626); experiment: as above

recombinant CD3 antigen (ectodomain of hCD3) (human), sequence (P07766 23-126): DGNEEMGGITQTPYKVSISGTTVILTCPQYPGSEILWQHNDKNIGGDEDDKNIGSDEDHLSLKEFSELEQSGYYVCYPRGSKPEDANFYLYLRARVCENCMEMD
CD3 on Jurkat cells (human (endogenous in Jurkat)), sequence (P07766 23-207, chain 1 of 3): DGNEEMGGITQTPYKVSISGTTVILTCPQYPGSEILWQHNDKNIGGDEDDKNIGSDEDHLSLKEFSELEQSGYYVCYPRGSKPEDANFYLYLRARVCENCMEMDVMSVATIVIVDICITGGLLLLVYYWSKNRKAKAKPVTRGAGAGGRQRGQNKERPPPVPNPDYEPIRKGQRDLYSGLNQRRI
CD3 on Jurkat cells (human (endogenous in Jurkat)), sequence (P04234 22-171, chain 2 of 3, further chain): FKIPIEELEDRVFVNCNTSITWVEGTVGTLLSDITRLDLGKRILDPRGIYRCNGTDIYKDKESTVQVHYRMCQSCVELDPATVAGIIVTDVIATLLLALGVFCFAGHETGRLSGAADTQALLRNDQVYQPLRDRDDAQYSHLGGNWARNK
CD3 on Jurkat cells (human (endogenous in Jurkat)), sequence (P09693 23-182, chain 3 of 3, further chain): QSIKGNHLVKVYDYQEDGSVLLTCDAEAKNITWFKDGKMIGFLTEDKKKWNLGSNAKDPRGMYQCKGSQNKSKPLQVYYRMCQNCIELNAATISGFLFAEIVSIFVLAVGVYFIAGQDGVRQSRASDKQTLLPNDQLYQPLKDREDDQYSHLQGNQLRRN

- Kd [1]: 187 nM
- Kd [2]: 11.7 nM
Substance: M802, anti-HER2/CD3 bispecific antibody (MSBODY format: monovalent unit against HER2 and single chain unit against CD3) (from UniProt P01857)

- koff [3]: 0.000248 s⁻¹
- kon [3]: 429000 M⁻¹ s⁻¹
- koff [4]: 0.0245 s⁻¹
- kon [4]: 345000 M⁻¹ s⁻¹
Substance: M802, anti-HER2/CD3 bispecific antibody (monovalent unit against HER2 and single chain unit against CD3)

- fold weaker affinity than Herceptin [5]: 3 fold
- Kd [6]: 71.2 nM
- Kd [7]: 0.578 nM
Substance: M802, anti-HER2/CD3 bispecific antibody (MSBODY format: monovalent unit against HER2 and single chain unit against CD3)
